In the supplement of paper PMC9170038:

Test system: MS2 coat protein
Experiment: apparent KD of MS2 coat protein; designed switch direction (-1 OFF switch, 1 ON switch): -1; higher = weaker reporter binding
Outline: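 RNA switches sharing common flanks were transcribed by stalled E. coli RNA polymerase on Illumina chips. A doubling series of SNAP-549-labelled MS2 coat protein, from 0.7 or 1.5 nM to 3 µM, was applied in Tris-HCl pH 7.5 buffer with KCl, MgCl2, BSA, DTT, tRNA and Tween-20. Each step lasted 0.8–1.5 h at the bottom of the series and 10–20 min at the top. Normalised cluster fluorescence was curve-fitted, giving apparent KD as the per-design median over clusters.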

[1] = Eterna round: R95, input ligand: microRNA oligo, concentration not stated
[2] = input ligand: microRNA oligo, concentration not stated
[3] = Eterna round: R95, input ligand: FMN 200 uM
[4] = Eterna round: R95, input ligand: none

Sequence | apparent KD of MS2 coat protein [1] [nM] | apparent KD of MS2 coat protein (input ligand: FMN 200 uM) [nM] | apparent KD of MS2 coat protein (input ligand: none) [nM] | apparent KD of MS2 coat protein [2] [nM] | further results
UUUUAACAUGAGGAUCACCCAUGUGAGGAUAUCGAAAUUUAUAUUAAUAUUAAUUUAACGAGAAGGCACAUUUU [JMF 31] (puzzle: Exclusion 1) | 88.5 |  |  |  | 
UUUUAACAUGAGGAUCACCCAUGUGAGGAUAUCGAAAUUUAUAUUAAUAUUAUUUUUUCGAGAAGGCACAUUUU [JMF 49] (puzzle: Exclusion 1) | 148 |  |  |  | 
UUUUAACAUGAGGAUCACCCAUGUGAGGAUAUCGAAAUUUAUAUUAAUAUUUUUAAAUCGAGAAGGCACAUUUU [JMF 68] (puzzle: Exclusion 1) | 98.9 |  |  |  | 
UUUUACUCAGGAUAUACAUGAGGAUCACCCAUGUAUAUUGAAGAUAAUACAUGGGAAUGUAGAAGGGAGCUCAU [Omei Ex3 Pseudoloop 18] (Eterna round: R97, puzzle: Exclusion 3) |  | 190 | 179 |  | 
UUUUCGUCAGGAUAUUCUACUUAUUACAUGAGGAUCACCCAUGUGUAUGUACAAGGGUGUGAAGAAGGGACUUUUU [LRO-Excl5-10-mod A17d by Omei] (Eterna round: R97, puzzle: Exclusion 5) |  | 305 | 1070 |  | 
UUUUCUUUUGUGAGGAUAUACUUGUUUUUUUUUUUGUAGAAGGCACAUGAGGAUCACCCAUGUUUUCUUUUCUG [JR_BME4_Sub026] (puzzle: Brourd's mod of Exclusion 4) | 20.6 |  |  |  | 
UUUUGGCAAGCGAGAUCCUACAUGAGGAUCACCCAUGUUGACCAUGGUUUCCAUGGUCAUUUUGCUCGUCUUGUGUG [jl TITIN mod 2] (Eterna round: R97, puzzle: Sensor, turn-off variant 1) |  | 31.8 | 32.3 |  | 
UUUUGUCGUGACAUGGGUGACAUGAGGAUCACCCAUGUUACAAGCUUGUUGCUCGUCUUAUAAUUAACCCAUGUCAU [LRO Sensor-off var1-18 mod of Stov1-13-A1 by Brourd] (Eterna round: R97, puzzle: Sensor, turn-off variant 1) |  | 44.7 | 49.1 |  | 
UUUUUAGAUGAAGGAUAUACUUAACAUGAGGAUCACCCAUGUGGUGUUGUGAGUGAGUGAGUUUAGUAGAAGGUCAAUGAUUUU [JMF's solution 66] (Eterna round: R96, puzzle: Exclusion NG 2) |  | 937 | 377 | 246 | 
UUUUUAGUGCUUUUUAAGUACAUGAGGAUCACCCAUGUACUUGUCUGGUGGUCCGGACAAGCUUUUUGCUCGUCUAA [Sensor v3 - turn-off variant 1 - 1] (puzzle: Sensor v3, turn-off variant 1) | 33 |  |  |  | apparent KD of MS2 coat protein [3]: 48.9 nM; apparent KD of MS2 coat protein [4]: 59.7 nM
UUUUUAUAACAAGGAUAUACUAAACAUGAGGAUCACCCAUGUAAUAUUAUGAGUGAGAGAGAGAAGUAGAAGGUGUAUUAUUUU [JMF solution 2] (Eterna round: R96, puzzle: Exclusion NG 2) |  |  |  | 82.4 | 
UUUUUAUAUGAAGGAUAUACUUAACAUGAGGAUCACCCAUGUGGUGUUGUGAGUGAGUGAGUUUAGUAGAAGGUCAAGUAUUCU [JMF's solution 40] (Eterna round: R96, puzzle: Exclusion NG 2) |  | 575 | 496 | 306 | 
UUUUUAUAUGAAGGAUAUACUUAACAUGAGGAUCACCCAUGUGGUGUUGUGAGUGAGUGAGUUUAGUAGAAGGUCAAGUAUUUA [JMF's solution 41] (Eterna round: R96, puzzle: Exclusion NG 2) |  | 663 | 380 | 527 | 
UUUUUAUAUGAAGGAUAUACUUAACAUGAGGAUCACCCAUGUGGUGUUGUGAGUGAGUGAGUUUAGUAGAAGGUCAAUUAGUAU [JMF's solution 101] (Eterna round: R96, puzzle: Exclusion NG 2) |  | 1110 | 295 | 253 | 
UUUUUAUAUGAAGGAUAUACUUAACAUGAGGAUCACCCAUGUGGUGUUGUGAGUGAGUGAGUUUAGUAGAAGGUCAAUUAUUUU [JMF's solution 6] (Eterna round: R96, puzzle: Exclusion NG 2) |  | 915 | 261 | 246 | 
UUUUUCAAGCCAGAUCCUCACAUGAGGAUCACCCAUGUGCUCGUCUGUUUUCGCACUAUCACGUUUGUGAUAGUGCU [Level Boss var2-11] (puzzle: Sensor v3, turn-off variant 1) | 17.7 |  |  |  | apparent KD of MS2 coat protein [3]: 297 nM; apparent KD of MS2 coat protein [4]: 307 nM
UUUUUGGUAGGAUAUACAUGAGGAUCACCCAUGUCCCACCCGUUACCUAUGACCAUAUGUAGAAGGACCAUUUC [Exy#11] (Eterna round: R97, puzzle: Exclusion 3) |  | 24.6 | 21.3 |  | 
UUUUUGUAUGAAGGAUAUACUUAACAUGAGGAUCACCCAUGUGGUGUUGUGAGUGAGUGAGUUUAGUAGAAGGUCAAUUCUUUU [JMF's solution 88] (Eterna round: R96, puzzle: Exclusion NG 2) |  | 604 | 454 | 275 | 
UUUUUGUGAGGAUAUCAGUAGUAAAUAAAUAAAAUUACUACUGAGAAGGCACAUGAGGAUCACCCAUGUUCCUU [salish99_ex3_r3_090] (puzzle: Exclusion 4) | 14 |  |  |  | 
UUUUUGUGAGGAUAUCAGUAGUAGAACAAUAGUACUACUACUGAGAAGGCACAUGAGGAUCACCCAUGUUCUUC [Fiskers Ex 4 Super stable 44 mod 11] (puzzle: Exclusion 4) | 27.1 |  |  |  | 
UUUUUUGUUGUGAGGAUAUCGUAUUUUUUUUGUUACGAGAAGGCACAUGAGGAUCACCCAUGUUUUUUGAUGUU [JR_BMOE4_Sub065] (puzzle: Brourd's mod of Exclusion 4) | 28.4 |  |  |  | 
